# Results as given in patent publication US20220356497A1, “COMPOSITIONS AND METHODS FOR SYNTHESIS OF TERPENOIDS” (Zymergen Inc., priority 2019, published 2022).
# Entries after “also recorded” stand apart in the source; their conditions may differ.
# Assays:
# nepetalactol [1] = assay: In vitro characterization of NOR candidates: conversion of nepetalactol to nepetalactone in clarified E. coli cell lysate (GC-MS); format: biochemical, Escherichia coli; conditions: NAD+ or NADP+, 30° C., 2 hours
# Procedure: The plasmids were individually transformed into chemically competent BL21 (DE3) cells. pUC19 was also transformed into BL21 (DE3) to produce a strain that could serve as a negative control. Transformants were selected and grown overnight with shaking in LB medium containing kanamycin. Glycerol stocks were prepared by mixing overnight culture with 50% glycerol in a 1:1 ratio. Glycerol stocks were frozen at −80° C.
# BL21 (DE3) strains were streaked out on LB plates containing kanamycin from glycerol stock and grown overnight at 37° C. A single colony was inoculated into 4 mL of LB medium containing kanamycin in 15 mL disposable culture tubes and incubated overnight at 30° C. with shaking at 250 rpm. 500 μL of the overnight culture was subcultured into 50 mL of LB medium containing kanamycin in a 250 mL baffled flask. The culture was grown at 37° C. and the optical density at 600 nm (OD600) was monitored. When OD600 reached between 0.6-1, the cultures were cooled on ice for 15 minutes. The cultures were then induced with 100 μM of isopropyl β-D-1-thiogalactopyranoside and incubated at 15° C. with shaking at 250 rpm for roughly 20 hours. Cultures were pelleted by centrifugation in 50 mL centrifuge tubes. The supernatant was decanted and the pellets were frozen at −20° C. for later processing.
# Pellets were thawed on ice and resuspended with 3 mL of cold lysis buffer: 50 mM sodium phosphate, pH=7.4, 100 mM sodium chloride. All remaining steps were performed either on ice or at 4° C. The cell mixture was transferred to a 15 mL centrifuge tube and disrupted with three rounds of sonication using the Branson Sonitier 450 with a double-level microtip at 70% amplitude. A single round of sonication consisted of 6 cycles of 10 seconds with the sonicator on, and 10 seconds off Between each round, the cell mixture was allowed to sit on ice for a minute to cool. The lysed cell mixture was transferred to 1.7 mL centrifuge tubes and centrifuged at maximum speed in a microcentrifuge for 20 minutes. The supernatant (clarified cell lysate) was collected in a separate tube and used for in vitro characterization.
# The in vitro reactions were setup as follows: 2 μL of 100 mM NAD+ or NADP+ and 10 μL of 100 uM nepetalactol was added to 188 μL of the clarified cell lysate. The reactions were incubated at 30° C. shaking at 200 rpm for 2 hours. As a positive control, 2 μL of 100 mM NAD+, 2 μL of 100 mM NADP+ and 10 μL of 100 μM nepetalactone was added to 186 μL of clarified lysate from a strain harboring pUC 19 and incubated for 1 hr. The reactions were extracted with one volume of ethyl acetate. The organic layer was withdrawn and analyzed with gas chromatography coupled to mass spectrometry (GC-MS). Authentic standards were run to confirm identities of analytes.
# nepetalactol [2] = assay: Production of nepetalactone from fed nepetalactol in Saccharomyces cerevisiae strains expressing NOR candidates from pESC-URA; format: cell-based; conditions: 100 mg/L nepetalactol, 2% galactose, 24 hours
# Procedure: The plasmids were individually transformed into chemically competent Saccharomyces cerevisiae cells as described in EXAMPLE 2. Transformants were selected on SD-URA agar plates. Three to four replicates were picked into SD-URA liquid medium and cultured at 30° C. for one to two days with shaking at 1000 rpm. Cultures were glycerol stocked at a final concentration of 16.6% glycerol and stored at −80° C. until later use.
# 10 μL of the glycerol stocked strains was inoculated into 300 μL of minimal media lacking uracil, and containing 4% glucose in 96-well plates to produce seed cultures. The plates were incubated at 30° C. at 1000 rpm for 1-2 days. 10 μL of the seed cultures was then inoculated into 300 μL of minimal media lacking uracil, and containing 2% galactose and 100 mg/L of nepetalactol. 30 μL of methyl oleate was next added to the wells. […]
# Cell density was determined using a spectrophotometer by measuring the absorbance of each well at 600 nm. […] The plates were shaken for 25 sat 750 rpm immediately before being measured on a Tecan M1 000 spectrophotometer. […] The plates were centrifuged and the ethyl acetate layer was collected and analyzed by liquid chromatography coupled to mass spectrometry (LC-MS). Target analytes were quantified against authentic standards.
Molecule,conversion (oxidation) of nepetalactol to nepetalactone (nepetalactol [1]),conversion (oxidation) of nepetalactol to nepetalactone (nepetalactol [1]; listed as NcatNORI5),nepetalactone produced (nepetalactol [2]) [mg/L]
"NcatNOR34: candidate nepetalactol oxidoreductase (NOR) from Nepeta cataria, protein SEQ ID NO: 578 (protein, listed as Nepeta cataria) MAFCRSSLLLRKALGGSRRAAAAATCSSAYACGWQSERGRWYSGGEGTTISAPGYHVNTAPSHMTGAVFWDKDKPITYEEFEMPRPKANEVLIKTKACGACHSDLHVIKGDLKFPCPCILGHEITGEVVEHGPLTETKYIERYPVGSKVIGAFIMPCGSCFYCSRGEDDLCEPYFAYNRAKGTLYDGQTRLFLRGSGKPVHMWSMSGLAEYCVTPVNGLGALPDTLPYAESSVLGCAVFTAYGAIAHAAEVKPGNSVAVIGIGGVGSSCLQIAKAFGASEIIAVDVEDGKLETAKTFGATHIINSRKEDAIAKIKELTDGRGVDIAVEAIGGPKTFAQCVGSVRAGGKAVMIGLSPTGGKGEVEITQLVRRKVKVIGSYGGRAMTDLPKLVELAEQGTFNLEAAVTRRYKFEEVAQAYQDLQNKTIVGRGVIEIM",can convert nepetalactol to nepetalactone; also recorded: can oxidize nepetalactol to nepetalactone,–,–
"NcatNOR15: candidate nepetalactol oxidoreductase (NOR) from Nepeta cataria, protein SEQ ID NO: 561 (protein, listed as Nepeta cataria) MAKTPETEHPVKAFGYAATDNSGTFSPFKFSRRATGERDVQFKVLYCGVCHSDLHMVKNEWGVTHYPIVPGHEIVGVATEVGSKVEKVKVGDKVGVGVIVGSCRQCDQCSNDLENYCSKQILTYGAPYLDGTITRGGYSDIMVADEHFIIRWPENFPLDAGAPLLCAGITTYSPLRYFGLDKPGLRVGVNGLGGLGHVAVKFAKAFGTKVTVISSSLRKKKEAVEKLGVDEFLVSTDPEQMQAAIGTLDGIIDTVSAEHSVVSLLSLLKPHGRLIVVGAPEKPHQLPAFPLITGRKSISGSAIGGMKETQEMIDFAAKHNILPDVEVIPIDYINTAMERLLKSDVKYRFVIDVEKSLKA",can convert nepetalactol to nepetalactone,can oxidize nepetalactol to nepetalactone,–
"GAR_NOR15: NOR candidate (SEQ ID NO: 1393) expressed in Saccharomyces cerevisiae from pESC-URA (protein, Nepeta cataria or Nepeta mussinii) MADKEGEVVCVTGGSGFIGSWLVSLLLRRGYSVRATVKNLGDERETKHLEAIEGADSRLSLFQIDLLDYDSVATAVGDAAGVFHLASPCTIDQVNDPQRELLDPAIKGTLNVLKAAKNLGVRRVVVTSSISAMIASSNSLAETGEDCWIDEDYCRQNGLWYPVSKALAEKAAWKLAEENGLDIVVVNPGMVVGPILPPALNSSMQLMLHVLQGKDFFEGFFMGLVHVKDVALAQILLYENTSASGRHLCVESLSRYDDFAKQMEKLYPEYKLPRFSNNAQHGSLKSDAALKKLRDLGIEFAPLEQIVKDSIESLRSKGYIS",–,–,93
"NcatNOR21: candidate nepetalactol oxidoreductase (NOR) from Nepeta cataria, protein SEQ ID NO: 566 (protein, listed as Nepeta cataria) MAKSVNAVGWAARDTSGLLSPLKFARPAAGDRDVQFKVLYCGICHSDLHSIKNEWGNTQYPIVPGHEIVGVVTAVGPKATKFKAGDKVGVGCLVNSCRHCDQCAADLENYCPQLVQTYNSVLADGSVTYGGYSDVMTADEDFVIRWPENFPMDKGAPLLCAGVTTYSPLRYYGLDKPGLHIGVVGLGGLGHVAVKFAKAFGMKVTVISTSAGKKKEAIETLGADAFLISRDASEMQAAAGTLDGMIDTVSAQHPLPPLLSLLKPHGKLILVGAPEKPFELPAFPLLMGRKTVAGSVIGGLKETQEMIDFAAKHNLLPEVEMIPMDYVNTAMERLAKADVKYRFVIDVGNTLTKAD",can convert nepetalactol to nepetalactone; also recorded: can oxidize nepetalactol to nepetalactone,–,–
